From US20260125465A1 (BROAD INSTITUTE, published 2026) come the findings set out here.

The target of the test is T1, soluble MSLN (Glu2-6-Gly580, Acro Bio Systems, MSN-H82E9-25 ug) (UniProt Q13421 296-580).
T1 construct: range 296-580; Detected with an anti-His secondary antibody in the CAR-T staining, so it carries a His tag; also called soluble mesothelin
In words: biolayer interferometry (BLI) with soluble MSLN. As for the experimental part: Experiments were undertaken to characterize the ability of the anti-MSLN VHH antibodies to bind MSLN. 6×His tagged (SEQ ID NO: 93) VHH antibodies were produced by Genscript in a mammalian cell line and purified. The purified VHH antibodies were tested using a flow cytometry-based assay to see how well they bound mesothelin expressed on cells (FIG. 9A). […] Also, biolayer interferometry (BLI) was used to accurately assess the binding affinity (Kd) of the anti-MSLN VHH antibodies (Table 5). BLI was conducted with soluble MSLN (Glu2-6-Gly580, Acro Bio Systems, MSN-H82E9-25 ug). […] After exposure to the media containing the soluble MSLN, an anti-His secondary antibody was used to detect CAR-T cells binding the MSLN. T cells expressing CARs containing the anti-MSLN VHH antibodies or SS1 as antigen binding domains bound the soluble MSLN.
For orientation: Biolayer interferometry detects binding as a change in optical thickness at a sensor tip.

T1 sequence (Q13421 other isoform, or with tags, fused parts or gaps limits assumed): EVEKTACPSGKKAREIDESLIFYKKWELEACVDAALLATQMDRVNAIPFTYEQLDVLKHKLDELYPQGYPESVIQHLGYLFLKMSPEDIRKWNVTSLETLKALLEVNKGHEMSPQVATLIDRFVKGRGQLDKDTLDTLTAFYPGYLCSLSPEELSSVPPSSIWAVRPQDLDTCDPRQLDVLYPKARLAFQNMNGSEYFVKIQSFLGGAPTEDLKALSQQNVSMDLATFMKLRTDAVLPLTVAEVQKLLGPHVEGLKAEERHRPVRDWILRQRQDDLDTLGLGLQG

B1: Ab_119707 VHH antibody, 6×His tagged, purified (VHH)
VHH: EVQLVESGGGSVQAGETLRLSCTASGFTFDDSDMGWYRQAPGDECELVSTISSDGSTNYADSVKGRFTISQDNAKNTVYLQMTSLKPEDTAIYSCRTMASRIGCWGQGTLVTVSH
notes: Produced by Genscript in a mammalian cell line and purified
Molecule B1 had a Kd of 5.95 nM.

B2: Ab_119702 VHH antibody, 6×His tagged, purified (VHH)
VHH: DVQLVESGGGLVQAGGSLRLSCAASGFPYFSCCMSWHRQAPGKDRELVSSISSDGSTHYADSVRGRFTISKGNARNTLYLQMNSLKPEDTAVYFCAASPRQLGPYYAMDYWGQGTSVTVSH
notes: as for B1
For B2, the affinity, expressed as Kd, was 5.32 nM.

B3: Ab_119706 VHH antibody, 6×His tagged, purified (VHH)
VHH: QLQLVESGGGLVQPGGSLRLSCAASGFTLDYYAIGWFRQAPGKEREGVSYISSSGGSTNYADSVKGRFTISRDNAKNTVYLQMNSLKPEDTGVYSCAAAGGYGNSSRYWGQGTSVTVSH
notes: as for B1
For the molecule B3, the affinity, expressed as Kd, was 11.5 nM.

B4: Ab_113415 VHH antibody, 6×His tagged, purified (VHH)
VHH: QVQLVESGGGLVQPGGSLRLSCAASGSMFSINAVAWYRQAPGEQREPVAAMTSGGSTIYADSVKGRFTISRDNAKNTVYLQMSSLKPEDTAVYYCNGGWSLAMDYWGQGTSVTVSH
notes: Produced by Genscript in a mammalian cell line and purified; The tag is written after the VHH only by convention
Molecule B4 showed a Kd of 3.69 nM.

B5: Ab_119704 VHH antibody, 6×His tagged, purified (VHH)
VHH: QLQLVESGGGLVQPGGSLRLSCAASGFTLDNYAIGWFRQAPGKEREGVSSISSSGGSTNYADSVKGRFTVSRDNAKHTVYLQMNSLKPEDTAVYYCAGVGDYGRRAMGQGTSVTVSH
notes: as for B1
In turn, B5 showed a Kd of 4.49 nM.

One may read the Kd as a measure of binding affinity in units of concentration. Read a low Kd as tighter binding.
